Measurements: patent US20110028686A1, “Protein binding miniature proteins” (Yale University, priority 2000, published 2011)
Square brackets hold non-standard residues; d marks the D form. Primed or numbered codes have the meaning given here. Ends that are not written are not given here. acetamidofluorescein″ = acetamidofluorescein (5-iodoacetamidofluorescein attached to the C-terminal Cys); pS = N[C@@H](COP(=O)(O)O)C(=O)O; Sar = CNCC(=O)O

B1: KID-AB^P (peptide)
peptide: TDSQKRREILSRRP[pS]YRKILNDLSSDAPGVC-NH2
modifications: also: C-terminal Cys acetamidofluorescein-labelled in direct assays, unlabelled as competitor

How the values were obtained:
FP with CBP KIX = substrate: CBP KIX, wild type (Example 20) (UniProt P45481); test: FP with CBP KIX
[1] = substrate: CBP KIX, wild type (Example 20) (UniProt P45481); test: FP, fluorescein-labelled PPKID4^P variant titrated with CBP KIX
GST-KIXY650A = GST-KIXY650A (UniProt P45481); test: FP, 25 nM fluorescein-labelled peptide titrated with GST-KIXY650A, 25 C
Chain of GST-KIXY650A (P45481 586-665 Y650A): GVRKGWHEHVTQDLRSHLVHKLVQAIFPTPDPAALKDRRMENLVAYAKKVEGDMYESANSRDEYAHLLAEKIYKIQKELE

Chain of CBP KIX, wild type (Example 20) (P45481 586-665 limits assumed): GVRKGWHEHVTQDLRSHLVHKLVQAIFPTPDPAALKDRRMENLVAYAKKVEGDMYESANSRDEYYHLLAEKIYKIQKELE

Binder	ΔΔG relative to wild type PPKID4^P (FP with CBP KIX) [kcal/mol]	Kd [1] [nM]	fold less stable than the wild type GST-KIX complex (GST-KIXY650A) [fold]
GPSQPTY[Sar]GDDAPVRRL[pS]FFYILLDLYLDAPGVC(acetamidofluorescein″)-NH2 (designed binder) [PPKID4^P P8Z]	0.15	780	
B1			15
G[Sar]SQPTYPGDDAPVRRL[pS]FFYILLDLYLDAPGVC(acetamidofluorescein″)-NH2 (designed binder) [PPKID4^P P2Z]	0.18	830	
GPSQ[Sar]TYPGDDAPVRRL[pS]FFYILLDLYLDAPGVC(acetamidofluorescein″)-NH2 (designed binder) [PPKID4^P P5Z]	0.16	800	
